The record followed here is publication doi:10.1101/2023.02.02.526371.

For the data set, the target named is T1, PIF3-GST (Arabidopsis thaliana, UniProt O80536 1-524).
T1 sequence: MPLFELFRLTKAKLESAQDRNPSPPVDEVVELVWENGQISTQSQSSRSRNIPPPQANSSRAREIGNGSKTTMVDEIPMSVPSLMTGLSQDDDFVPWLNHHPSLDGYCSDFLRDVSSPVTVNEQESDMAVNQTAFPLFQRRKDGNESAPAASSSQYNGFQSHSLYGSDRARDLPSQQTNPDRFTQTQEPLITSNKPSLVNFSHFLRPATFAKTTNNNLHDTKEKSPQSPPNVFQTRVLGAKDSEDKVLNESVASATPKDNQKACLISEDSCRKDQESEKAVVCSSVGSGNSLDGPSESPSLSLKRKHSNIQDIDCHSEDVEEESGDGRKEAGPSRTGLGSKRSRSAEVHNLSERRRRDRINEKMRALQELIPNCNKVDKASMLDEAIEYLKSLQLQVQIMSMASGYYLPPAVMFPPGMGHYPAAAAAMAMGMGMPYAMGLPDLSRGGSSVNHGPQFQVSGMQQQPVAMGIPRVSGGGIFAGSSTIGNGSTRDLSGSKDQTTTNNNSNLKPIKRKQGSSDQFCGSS
Put plainly: EMSA. On the technique in general: A gel shift assay detects complexes by their altered migration in electrophoresis.

B1: PIEZO promoter probe 2 (dsDNA)
DNA 1: ATCCAAATGGACCACATGCCCATCAACCTCCAT
DNA 2: ATGGAGGTTGATGGGCATGTGGTCCATTTGGAT
Consider B1, for which the binding result is on record as “binds”.

B2: PIEZO promoter probe 1 (dsDNA)
DNA 1: CCTAGAACTAAACACATGAGCCTCCTTCTT
DNA 2: AAGAAGGAGGCTCATGTGTTTAGTTCTAGG
B2: the binding result was “binds”.
